Data taken from PMC11343202.

Molecular target: GFP with a c-Myc nuclear localization signal at the C-terminus (GFP-NLS)
Assay: label-free LC MS/MS

## AAV-DJ capsid incorporating VP1 with a GFPnb inserted at position H631, supplemented with wild type VP2/VP3 (complex)
  GFP:capsid (GFP-NLS per capsid): 1 to 3
